Data from US20040175364A1.

Target: Adenovirus 5 receptor (cell surface fiber receptor on HeLa cells)
Experiment: cell-based or functional assay

“Adenovirus 5 fiber protein (from UniProt P11818 1-581) (ligand)” showed a percentage of adenoviral transduction of HeLa cells by Av1LacZ4 (β-galactosidase positive cells) after preincubation with competitor fiber of 0.1 to 1 pg/mL.
